Experimental findings from the DeepSol protein solubility set are described below.

The data set in a line: soluble on expression in E. coli; label from the status in PepcDB or PDB records.
In the case of “MAHHHHHHMTTMARVDETLARFKGKSPRDSYKQVCGELDVHMQREIYAALPEKPMAWHHIYTLDLEKALLGTKGCMAMLPLITVSTSMRKLSLRSCGLSDEFVIQLCAVLQSHPSLRSVDISDNELVTVYSAPHIISVMRNNSNMVLFDVYNTHVGSNVGDIIAKLGQRNLDNVLHYYEDRYFRMKNLFNYMDADGTGWVVLKSLVLNCPYPVLQEQFVERIATKQPRKRSDNTISINTFLQLVYMNYKTEAEIGTYSNKTIDEPYVFMVANWKQLLYAVERYNARAAAMGDGQGPHPPVQLPDNFHRWRLRDYIITPDDADALVEGAVQLIEHSSAMAEGEPELNESGERAEPDAEVDSDKETAENAAEAAPLVIPITILLRAAKSVLVLPPSVAKPSYSFYTDRDAAYVPEILRNGSRLFSVSRLSCLFSGGASTTGDSASSPDVLQDSADRPHTFSLPASVVKMVVDFFNKEHKKLPTKKQSMIPDSPQTRRDKAMEKAAIPVPTFLSAEFVSDLERVCPRFLADYYSRHALLIEDGTITLQEMVNVLDEMYAQCRIDRIISLADIKAMPDPMKDKSLVSFVTAHFADRDEDISFLEPFNDVVAY”, the “soluble on expression in E. coli” value was “soluble”. The same measure for “MGSDKIHHHHHHMRVLAAMSGGVDSAVAAARAVEAGHDVVGVHLALSRMPGTLRTGSRGCCTIEDSRDAWRACDVLGIPYYVWDFSERFKEDVVQDFIDEYAAGRTPNPCMRCNERIKFAALLEKAIALGFDAVCTGHYAKVITDADGNPELHRAADWAKDQSYVLGVLTHEQLKHSMFPLADTPSKAEVRAEAERRGLSVANKPDSHDICFIPDGDTAGWLAEKIEMTTGDIVDEAGTKVGEHPGANAFTVGQRRGLKLGTPAADGKPRFVLEIRPKENKVVVGPEALLAIDEIRGIKVSWAGLPIAEVATGDEFDCHAQVRAHGDPVPATARMERLTDDDGAERTNLVVTLATPLRGVAPGQTVVLYQGSRVLGQATIDTARSLQRAAL”: “not soluble”; for “MEKNMRPYTVLWADDEIDLLKPHILFLEQKGYQVTPVLSGNDAIEAVQNNDFDIVFLDENMPGIGGLDALQKIKELKPYTPVVMITKSEEEHIMTQAIGGKIADYLIKPVNPNQLLLSLKKNLQQHSIISETTNTNYRQEFVQLGTQMSGKLSFEEWKELYRRIVFWEIELEQADRQMGELLEMQKQEANRLFARFVTQNYREWIAKPDTRPTMSPDLFKQKVFPLLDNGEKVFFILIDNFRQDQWESVKSMLSEFYTFEEDMYLSILPTATQYARNAIFSGLMPLQIEKMFPDLWVDEESEEGKNLNEEPMIRTLIERYRKHYSFSYNKVYETKFGERLLGQIRSLSQNQLNVIVLNFVDMMSHARTDSKMIRELASNEAAYRSLTKSWFKHSTTYNLFRSIAEMGYKVVLTTDHGTIQVKNPVKVIGDRSTNTNLRYKIGKNLDYNPKEVFEIKDPASVGLPHNNLSDKFIFTKEDDFFAYPNNYNYYVQYYRNTFQHGGISLEEMLVPVITMQPK”: “not soluble”; for “AYPSFEAYSNYKVDRTDLETFLDKQKEVSLYYLLQNIAYPEGQFNNGVPGTVIASPSTSNPDYYYQWTRDSAITFLTVLSELEDNNFNTTLAKAVEYYINTSYNLQRTSNPSGSFDDENHKGLGEPKFNTDGSAYTGAWGRPQNDGPALRAYAISRYLNDVNSLNEGKLVLTDSGDINFSSTEDIYKNIIKPDLEYVIGYWDSTGFDLWEENQGRHFFTSLVQQKALAYAVDIAKSFDDGDFANTLSSTASTLESYLSGSDGGFVNTDVNHIVENPDLLQQNSRQGLDSATYIGPLLTHDIGESSSTPFDVDNEYVLQSYYLLLEDNKDRYSVNSAYSAGAAIGRYPEDVYNGDGSSEGNPWFLATAYAAQVPYKLAYDAKSASNDITINKINYDFFNKYIVDLSTINSAYQSSDSVTIKSGSDEFNTVADNLVTFGDSFLQVILDHINDDGSLNEQLNRYTGYSTGAYSLTWSSGALLEAIRLRNKVKALA”: “soluble”. The value for “MAHRNTYEAVLHKIQVGSPEDGNGAIRILQLSDLHLEKLSISPDDLYEKLRGEPIDFIALTGDFLDREASIPKLGPYLTALKKLQPAYGMYAVFGNHDYVLQGEPFERLKATLEEHGCIVLQNEMKTITVHGQTVNIIGIDDFYTRRSNMKKAYAGVKDGINIVLTHDPDIVPHMGAYHFDYLLSGHFHGGQIHWPKPYHLAKMSKTLTKRNMIKGYHEWEGKPFYINEGLGQTGVNIRVGSKPEVTLHLLSLPSVAQSETVKAVLEHHHHHH” was “soluble”; that for “MHGKLIGVGVGPGDSELLTLRAVNVLRSVPVICAPRSSSERESIALSIVEDILTERRDGCRILDPVFPMTDDRDELESHWDSAARMVAAELEDGRDVAFITLGDPSIYSTFSYLQQRIEDMGFKTEMVPGVTSFTACAATAGRTLVEGDEILLVVPRVDDRFERVLRDVDACVIMKTSRHGRRAMEVVESDPRGKDVVSVANCSMDDEVVERGFASGGGYLATTLVRFREQS” was “soluble”; that for “MSLMKRQFEDVTRIVIKIGTSSLVLPTGKINLEKIDQLAFVISSLMNKGKEVILVSSGAMGFGLDILKMEKRPTNLAKQQAVSSVGQVAMMSLYSQIFAYYQTNVSQILLTRDVVVFPESLANVTNAFESLISLGIVPIVNENDAVSVDEMDHATKFGDNDRLSAVVAGITKADLLIMLSDIDGLFDKNPTIYEDAQLRSHVANITQEIIASAGGAGSKFGTGGMLSKVQSAQMVFENKGQMVLMNGANPRDILRVLEGQPLGTWFKQIEEVRHDEGHHHHHH” was “soluble”. The value for “MKPATLTAELDVRSGGRYRISFVSDDGEYFEAGGTYREVVPNELLVFTWAWHSTPERESLVTISFKPDSAGTLMIFHHAQFFDEAARDNHRRGWSSFLDKLDAFVALEHHHHHH” was “not soluble”; that for “MWIVFDVDGVLIDTSESYDMATKLTVEYFLSHLGIKKEVSLEIIRDMRKKGVFSDDFELSEALILMYLSGEDLPKGEGVEYLRQKLGIVLDRKDIERVFNTFYLGEIYPNSIFKFEGLWRKEKRIVDIELLKKAKETYKLGIVTGRDSLEMKLAEEIIRFKFDKVVTRDMFEKPDPRALYEVTQGEEAIYIGDSKVDEELVERYRRTFKGNVTYLMVGRDVNDVNEALKKILFQSYIRLEHHHHHH” was “soluble”. For the sequence “MSLKSKEKLFIANVADSNLNEADKDKAKNEIAKLNASQVVATTLASSVRETEKQEKIETDICNENAISESKLDGIDDLEFVDENYYISPSLDTLATLSKYEIQKVENLVVGNKQYGKIEFLDPVDLSDIPLGSICDDLVVFQPMSVLLYNNSTNVPEKGKGLNVRARISCYNCYPLDKSTRKPIKDPNHRIMERYSEKLKKIPHTHFESYDPASGTYCFTVDHALEGHHHHHH”, the “soluble on expression in E. coli” value was “soluble”. The same measure for “MTTRLEWAKASPDAYAAMLGLEKALAKAGLERPLIELVYLRTSQINGCAYCVNMHANDARKAGETEQRLQALCVWQETPYFTPRERAALAWTEQLARLSQGALPHGLLDELREHFDDKEIAELTLAVSAINAWNRFGVGMGMQPE”: “soluble”; for “MGHHHHHHGSLVPRGSRAYSFKVVLLGEGCVGKTSLVLRYCENKFNDKHITTLQASFLTKKLNIGGKRVNLAIWDTAGQERFHALGPIYYRDSNGAILVYDITDEDSFQKVKNWVKELRKMLGNEICLCIVGNKIDLEKERHVSIQEAESYAESVGAKHYHTSAKQNKGIEELFLDLCKRMIET”: “soluble”. The value for “MEAPEFKDFAKTMVDFIAEYLENIRERRVLPEVKPGYLKPLIPDAAPEKPEKWQDVMQDIERVIMPGVTHWHSPKFHAYFPTANSYPAIVADMLSGAIACIGFTWIASPACTELEVVMMDWLGKMLELPAEFLACSGGKGGGVIQGTASESTLVALLGAKAKKLKEVKELHPEWDEHTILGKLVGYCSDQAHSSVERAGLLGGVKLRSVQSENHRMRGAALEKAIEQDVAEGLIPFYAVVTLGTTNSCAFDYLDECGPVGNKHNLWIHVDAAYAGSAFICPEYRHLMKGIESADSFNFNPHKWMLVNFDCSAMWLKDPSWVVNAFNVDPLYLKHDMQGSAPDYRHWQIPLGRRFRALKLWFVLRLYGVENLQAHIRRHCNFAKQFGDLCVADSRFELAAEINMGLVCFRLKGSNERNEALLKRINGRGHIHLVPAKIKDVYFLRMAICSRFTQSEDMEYSWKEVSAAADEMEQEQ” was “soluble”.
